# B1: anti-HER3/HER4 antibody M-05-74 (antibody, V domains shown)
# VH: QVQLQQSGAELAKPGASVKMSCKTSGYTLTDYWIHWVKQRPGQGLEWIGYINPYTGYTESNQKFKDKATLTADKSSNTAYIQLSSLTSEDSAVYYCARPYYYGDYWGQGTTLTVSS
# VL: QIVLTQSPAIMSASPGERVTITCSASSSVSYMHWFQQKPGTSPKLLIYSTSNLASGVPARFSGSGSGTSYSLTISRMEAEDAATYYCQQRSSYPFTFGSGTKLEIK
# notes: murine monoclonal antibody from hybridoma (supernatant or purified); also called M-074; M-5-74
# Columns and labels:
# Assay in all cases: SPR Biacore 3000, antibody captured, 25 C
# [1] = biological target: T1, human recombinant HER3 ECD (human, UniProt P21860 20-643)
# T1 construct: 68 kDa; also called human-Her3-ECD; full length Her3 ECD
# Experimental: (§1) A CM5 series sensor was mounted into the system and was normalized in HBS-ET buffer (10 mM HEPES pH 7.4, 150 mM NaCl, 3 mM EDTA, 0.005% w/v Tween 20) according to the manufacturer's instructions. The sample buffer was the system buffer supplemented with 1 mg/ml CMD (Carboxymethyldextran). The system operated at 25° C. 10000 RU RAM-Fcγ(relative units of Fcγ-fragment Rabbit Anti-Mouse IgG/Jackson Laboratories) were immobilized according to the manufacturer's instructions using EDC/NHS chemistry on all flow cells. The sensor was deactivated using 1M ethanolamine. Analytes in solution were injected at 100 μl/min at different concentration steps of 0 nM, 1.1 nM, 3.7 nM, 11.1 nM, 33.1 nM and 90 nM for 2 min. The dissociation was monitored for 5 min. Acidic regeneration of the sensor surface was achieved using three consecutive injections of 10 mM Glycine pH 1.7 at 30 μl/min for 60 sec. Kinetic data were evaluated according to a Langmuir fit.
# HER3 ECD-HRG complex = biological target: T2, HER3 ECD-HRG complex (human, UniProt P21860 20-643)
# T2 construct: also called Heregulin/Her-3 ECD
# Experimental: as §1
# TtSlyD-FKBP-Her3 = biological target: T3, TtSlyD-FKBP-Her3
# T3 construct: 15 kDa; N-terminal Met may be present or not; also called Thermus thermophilus SlyD FKBP-Her3; thermo SlyD-Her3
# T3 chain: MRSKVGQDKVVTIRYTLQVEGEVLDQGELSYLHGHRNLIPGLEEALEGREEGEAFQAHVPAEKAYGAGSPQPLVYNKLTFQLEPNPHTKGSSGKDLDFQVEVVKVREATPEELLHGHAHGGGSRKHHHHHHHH
# Experimental: as §1
# T1 sequence (P21860 20-643): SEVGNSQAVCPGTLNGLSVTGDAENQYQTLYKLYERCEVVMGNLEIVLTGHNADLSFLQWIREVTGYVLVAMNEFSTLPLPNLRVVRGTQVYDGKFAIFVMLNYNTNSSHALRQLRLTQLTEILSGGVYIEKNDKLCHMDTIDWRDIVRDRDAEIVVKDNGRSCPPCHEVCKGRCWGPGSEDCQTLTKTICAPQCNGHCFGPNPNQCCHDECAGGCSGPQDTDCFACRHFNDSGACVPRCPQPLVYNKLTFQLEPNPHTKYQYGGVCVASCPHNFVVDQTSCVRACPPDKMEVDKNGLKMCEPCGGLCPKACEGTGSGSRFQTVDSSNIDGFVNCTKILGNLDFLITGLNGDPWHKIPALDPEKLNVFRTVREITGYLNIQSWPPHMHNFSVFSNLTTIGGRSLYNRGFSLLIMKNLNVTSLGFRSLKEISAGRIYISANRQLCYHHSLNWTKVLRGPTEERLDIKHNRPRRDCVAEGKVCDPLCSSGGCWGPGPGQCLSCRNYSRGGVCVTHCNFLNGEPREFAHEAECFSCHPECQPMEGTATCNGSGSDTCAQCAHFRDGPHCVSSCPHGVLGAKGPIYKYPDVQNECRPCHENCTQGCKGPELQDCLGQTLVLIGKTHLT
# T2 sequence (P21860 20-643 limits assumed, one chain of several): as the sequence (P21860 20-643) above
binder,measurement,setting,value
B1,Binding Late BL,[1],36 RU
same,Molar Ratio MR,[1],0.2
same,Binding Late BL,HER3 ECD-HRG complex,199 RU
same,Molar Ratio MR,HER3 ECD-HRG complex,0.8
same,Binding Late BL,TtSlyD-FKBP-Her3,68.1 RU
same,Molar Ratio MR,TtSlyD-FKBP-Her3,1.5
